Experimental data as given in publication PMC8372317, “Discovering protein–protein interaction stabilisers by native mass spectrometry†” (Chemical Science, 2021).
Non-standard residues stand in square brackets, D forms with d. pT = C[C@@H](OP(=O)(O)O)[C@H](N)C(=O)O

Biological target: T1, 14-3-3σ (UniProt P31947 1-248, partial β-mercaptoethanol capping of Cys38 (+76 Da adduct))
T1 construct: 14-3-3σ (14-3-3 protein sigma); The His-tag is TEV protease cleavable; Observed predominantly as a dimer by native MS; also called recombinant 14-3-3σ; receptor (R)
T1 sequence (looked up): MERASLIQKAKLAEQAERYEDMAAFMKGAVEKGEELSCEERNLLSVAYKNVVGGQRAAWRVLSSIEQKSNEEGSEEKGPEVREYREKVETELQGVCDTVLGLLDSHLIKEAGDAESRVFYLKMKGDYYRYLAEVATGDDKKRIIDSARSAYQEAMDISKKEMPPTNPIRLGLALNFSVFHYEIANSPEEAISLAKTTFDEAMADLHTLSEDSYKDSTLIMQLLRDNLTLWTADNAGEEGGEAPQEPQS
Assay: native MS; 14-3-3σ 5 μM (monomer) with 25 μM phosphopeptide, no ligand (R:P:L 1:5:0); 50 mM ammonium acetate pH 6.8, 0.25% DMSO
Conditions: both partners purified

B1: ERα(581–595) phosphopeptide (peptide)
peptide: Ac-KYYITGEAEGFPA[pT]V-OH
notes: estrogen receptor ERα, C-terminal fragment, residues 581-595; also called C-terminal fragment of estrogen receptor ERα; source: synthetic peptide, bought: Synpeptide Ltd (>95% purity)
  stoichiometry N: 2 peptide per 14-3-3σ dimer
